The target in assay [1] is pAcGFP1-53 (positive control bait) (UniProt P02340). Briefly: co-IP; Matchmaker Co-IP system in co-transfected HEK 293 cells (pAcGFP1 bait, ProLabel prey); read-out by ProLabel enzyme complementation, luminescence (RLU); fold induction 60 min after substrate against the experimental control (pAcGFP1-TRIB2 and ProLabel-empty vector).
Assay [2] has as its target T1, Tribbles pseudokinase 2 (TRIB2), AcGFP1 fusion in HEK 293 cells (pAcGFP1-TRIB2) (bovine, UniProt Q5GLH2 1-343).
T1 construct: bovine TRIB2 (NM_178317.3); also called TRIB2 bait plasmid; source: HEK 293, transfected, in lysate
T1 sequence (looked up): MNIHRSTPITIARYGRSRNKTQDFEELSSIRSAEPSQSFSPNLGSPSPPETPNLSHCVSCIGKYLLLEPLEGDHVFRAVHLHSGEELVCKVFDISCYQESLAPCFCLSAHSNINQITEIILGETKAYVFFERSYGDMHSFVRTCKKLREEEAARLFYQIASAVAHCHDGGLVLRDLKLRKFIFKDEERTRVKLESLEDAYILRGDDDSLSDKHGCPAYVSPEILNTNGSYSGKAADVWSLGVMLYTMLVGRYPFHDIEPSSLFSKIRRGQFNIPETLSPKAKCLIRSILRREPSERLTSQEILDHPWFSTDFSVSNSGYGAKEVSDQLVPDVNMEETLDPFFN
Described as above. The settings on record: partners not purified.

The text below walks through data of paper PMC7913596, “Tribbles Pseudokinase 2 (TRIB2) Regulates Expression of Binding Partners in Bovine Granulosa Cells” (International Journal of Molecular Sciences, 2021).

pAcGFP1-53 (positive control bait), sequence (P02340 whole entry, the tested form may be a part): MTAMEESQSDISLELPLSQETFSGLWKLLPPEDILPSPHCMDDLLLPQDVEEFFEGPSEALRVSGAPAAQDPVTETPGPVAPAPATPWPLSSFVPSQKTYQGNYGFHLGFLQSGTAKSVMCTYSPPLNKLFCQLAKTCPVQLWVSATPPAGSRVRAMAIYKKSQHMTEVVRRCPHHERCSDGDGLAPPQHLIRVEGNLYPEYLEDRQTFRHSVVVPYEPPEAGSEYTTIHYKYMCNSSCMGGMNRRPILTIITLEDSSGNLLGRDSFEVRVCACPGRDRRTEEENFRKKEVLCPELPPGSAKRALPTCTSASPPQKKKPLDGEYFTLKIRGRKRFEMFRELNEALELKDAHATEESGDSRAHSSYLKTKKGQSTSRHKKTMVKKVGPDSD

With “ProLabel-T (positive control prey) (natural protein)”, the fold induction of ProLabel enzymatic activity against the experimental control in assay [1] is 4.7 fold.

B1: inhibin subunit beta A (INHBA), ProLabel prey in HEK 293 cells (natural protein, Bos taurus, UniProt P07995 21-425, looked up)
chain: SPTPGSEGHSAAPDCPSCALATLPKDVPNSQPEMVEAVKKHILNMLHLKKRPDVTQPVPKAALLNAIRKLHVGKVGENGYVEIEDDIGRRAEMNELMEQTSEIITFAESGTARKTLHFEISKEGSDLSVVERAEIWLFLKVPKANRTRSKVTIRLFQQQKHLQGSLDAGEEAEEVGLKGEKSEMLISEKVVDARKSTWHIFPVSSCIQRLLDQGKSSLDIRIACEQCQETGASLVLLGKKKKKEEEGEGKKRDGEGGAGGDEEKEQSHRPFLMLQARQSEDHPHRRRRRGLECDGKVNICCKKQFFVSFKDIGWNDWIIAPSGYHANYCEGECPSHIAGTSGSSLSFHSTVINHYRMRGHSPFANLKSCCVPTKLRPMSMLYYDDGQNIIKKDIQNMIVEECGCS
notes: Bos taurus inhibin subunit beta A; Seen at around 50 kDa after co-IP and at 44 kDa in extracts not subjected to co-IP; The insert may be the cDNA fragment found in the two-hybrid screen; source: HEK 293, transfected, in lysate
With B1, the “fold induction of ProLabel enzymatic activity against the experimental control” value in assay [2] worked out at 9.2 fold.

B2: inositol polyphosphate phosphatase-like 1 (INPPL1), ProLabel prey in HEK 293 cells (natural protein, Bos taurus, UniProt E1BBJ7 1-1264, looked up)
chain: MASACGAPGPGGAGPGAALGSPAPAWYHRDLSRAAAEELLARAGRDGSFLVRDSESVAGAFALCVLYQKHVHTYRILPDGEDFLAVQTSQGVPVRRFQTLGELISLYAQPNQGLVCALLLPVEREREPDPPDDRDASDGEDEKPPLPPRSGSTSISAPMGPSSPPAAPETPTTPAAESAPNGLSTVSHEYLKGSYGLDLEAVRGGASNLPHLTRTLATSCRRLHSEVDKVLSGLEILSKVFDQQSSPMVTRLLQQQNPPQTGEQELESLVLKLSVLKDFLSGIQKKALKALQDMSSTAPPAPLQPSTRKAKTIPVQAFEVKLDVTLGDLTKIGKSQKFTLSVDVEGGRLVLLRRQRDSQEDWTTFTHDRIRQLIKSQRVQNKLGVVFEKEKDRTQRKDFIFVSARKREAFCQLLQLMKNKHSKQDEPDMISIFIGTWNMGSVPPPKNVTSWFTSKGLGKTLDEVTVTIPHDIYVFGTQENSVGDREWLDLLRGGLKELTDLDYRPIAMQSLWNIKVAVLVKPEHENRISHVSTSSVKTGIANTLGNKGAVGVSFMFNGTSFGFVNCHLTSGNEKTARRNQNYLDILRLLTLGDRQLSAFDISLRFTHLFWFGDLNYRLDMDIQEILNYISRKEFEPLLRVDQLNLEREKHKVFLRFSEEEISFPPTYRYERGSRDTYAWHKQKPTGVRTNVPSWCDRILWKSYPETHIICNSYGCTDDIVTSDHSPVFGTFEVGVTSQFISKKGLSKTSDQAYIEFESIEAIVKTASRTKFFIEFYSTCLEEYKKSFENDAQSSDNINFLKVQWSSRQLPTLNPILADIEYLQDQHLLLTVKSMDGYESYGECVVALKSMIGSTAQQFLTFLSHRGEETGNIRGSMKVRVPTERLGTRERLYEWISIDKDEAGAKSKAPSVSRGSQDPRSGSRKPASTEASCPLSKLFEEPEKPPPTGRPPAPPRAAPREEPLTPRLKPEGAPELEGVVAPPPKNSFNNPAYYVLEGVPHQLLPPEPPSPARAPVPPATKNKVAITVPAPQLGRHRPPRAGEGSSSDEDSGGTLPPPDFPPPPLPDSAIFLPPGLDPLPGPVIRGRSGGEARGPPPPKAHPRPPLPPGPSPASTFLGDVASGDDRSCSVLQMAKTLSEVDYAPAGPGRAMLLPGPLELQPPRGLPSDYGRPLSFPPPRIRESIQEDLAEEAPCPQVGRAGGLGEAGMGAWLRAIGLERYEEGLVHNGWDDLEFLSDITEEDLEEAGVQDPAHKRLLLDTLQLSK
notes: Bos taurus inositol polyphosphate phosphatase-like 1; Bands at around 50 kDa and 100 kDa after co-IP, around 160 kDa in extracts not subjected to co-IP; The insert may be the cDNA fragment found in the two-hybrid screen; also called SHIP2; SH2-containing inositol 5'-phosphatase 2; source: HEK 293, transfected, in lysate
Turning to B2, the “fold induction of ProLabel enzymatic activity against the experimental control” value in assay [2] came to 2.3 fold.
